Assay results from PMC12356973.

Target: nsp10 (two [Fe4S4]);nsp16 (SARS-CoV-2;SARS-CoV-2, UniProt P0DTD1;P0DTD1 4254-4392;6799-7096, |)
Assay: EMSA
Conditions: protein: recombinant;recombinant; copies: 1;1; single strand

B1: Cap-0 RNA (7MeGppp RNA) (ssRNA)
RNA: AUUAAAGGUU
modifications: 5' m7Gppp cap (Cap-0), Vaccinia capping system
- binding result: binds
